# Test results as given in publication PMC10397247.
# T1: 4H2466-AA
# T1 chain: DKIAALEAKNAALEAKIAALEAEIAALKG
# T2: 4H249-AA
# T2 chain: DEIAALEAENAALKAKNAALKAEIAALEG
# T3: 4H2505-AA
# T3 chain: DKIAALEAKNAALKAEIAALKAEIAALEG
# T4: 4H2575-AA
# T4 chain: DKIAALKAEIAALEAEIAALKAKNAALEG
# T5: 4H2592-AA
# T5 chain: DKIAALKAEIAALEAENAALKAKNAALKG
# T6: 4H2617-AA
# T6 chain: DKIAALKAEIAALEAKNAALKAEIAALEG
# T7: 4H2642-AA
# T7 chain: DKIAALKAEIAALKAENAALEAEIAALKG
# T8: 4H2729-AA
# T8 chain: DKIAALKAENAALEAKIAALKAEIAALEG
# T9: 4H2732-AA
# T9 chain: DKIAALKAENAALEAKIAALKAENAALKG
# T10: 4H2754-AA
# T10 chain: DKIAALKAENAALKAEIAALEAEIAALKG
# T11: 4H2774-AA
# T11 chain: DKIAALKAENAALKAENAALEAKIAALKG
# T12: 4H2837-AA
# T12 chain: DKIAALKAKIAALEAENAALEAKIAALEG
# T13: 4H2883-AA
# T13 chain: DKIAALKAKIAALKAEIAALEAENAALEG
# T14: 4H2931-AA
# T14 chain: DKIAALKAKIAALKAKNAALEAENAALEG
# T15: 4H2944-AA
# T15 chain: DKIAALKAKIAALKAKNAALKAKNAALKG
# T16: 4H2949-AA
# T16 chain: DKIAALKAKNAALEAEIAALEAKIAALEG
# T17: 4H3001-AA
# T17 chain: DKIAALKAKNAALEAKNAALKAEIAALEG
# T18: 4H3015-AA
# T18 chain: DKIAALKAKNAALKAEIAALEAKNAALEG
# T19: 4H3073-AA
# T19 chain: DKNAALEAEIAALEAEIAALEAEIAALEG
# T20: 4H3112-AA
# T20 chain: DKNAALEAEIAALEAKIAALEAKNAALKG
# T21: 4H317-AA
# T21 chain: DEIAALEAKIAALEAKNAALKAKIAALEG
# T22: 4H3343-AA
# T22 chain: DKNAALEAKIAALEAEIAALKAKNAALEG
# T23: 4H335-AA
# T23 chain: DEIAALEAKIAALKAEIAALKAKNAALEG
# T24: 4H342-AA
# T24 chain: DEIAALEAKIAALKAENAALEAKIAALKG
# T25: 4H3427-AA
# T25 chain: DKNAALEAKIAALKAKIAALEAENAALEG
# T26: 4H3438-AA
# T26 chain: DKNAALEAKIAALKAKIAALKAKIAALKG
# T27: 4H347-AA
# T27 chain: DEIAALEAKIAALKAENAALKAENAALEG
# T28: 4H3606-AA
# T28 chain: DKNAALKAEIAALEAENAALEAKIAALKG
# T29: 4H3627-AA
# T29 chain: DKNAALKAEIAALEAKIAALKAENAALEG
# T30: 4H3655-AA
# T30 chain: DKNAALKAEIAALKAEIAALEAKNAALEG
# T31: 4H3844-AA
# T31 chain: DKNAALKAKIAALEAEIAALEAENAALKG
# T32: 4H3921-AA
# T32 chain: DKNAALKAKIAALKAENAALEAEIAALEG
# T33: 4H406-AA
# T33 chain: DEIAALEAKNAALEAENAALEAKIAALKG
# T34: 4H429-AA
# T34 chain: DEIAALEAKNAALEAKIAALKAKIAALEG
# T35: 4H452-AA
# T35 chain: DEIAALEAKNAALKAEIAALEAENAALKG
# T36: 4H454-AA
# T36 chain: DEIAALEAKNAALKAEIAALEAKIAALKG
# T37: 4H48-AA
# T37 chain: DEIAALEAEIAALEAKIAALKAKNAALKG
# T38: 4H56-AA
# T38 chain: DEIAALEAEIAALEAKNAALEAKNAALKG
# T39: 4H566-AA
# T39 chain: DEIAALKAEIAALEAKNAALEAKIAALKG
# T40: 4H605-AA
# T40 chain: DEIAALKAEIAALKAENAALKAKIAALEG
# T41: 4H678-AA
# T41 chain: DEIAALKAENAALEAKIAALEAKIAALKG
# T42: 4H717-AA
# T42 chain: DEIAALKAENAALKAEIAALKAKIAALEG
# T43: 4H780-AA
# T43 chain: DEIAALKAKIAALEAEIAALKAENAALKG
# T44: 4H794-AA
# T44 chain: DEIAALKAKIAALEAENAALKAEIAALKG
# T45: 4H881-AA
# T45 chain: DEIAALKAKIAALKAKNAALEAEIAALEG
# T46: 4H906-AA
# T46 chain: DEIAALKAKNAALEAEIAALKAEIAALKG
# T47: 4H993-AA
# T47 chain: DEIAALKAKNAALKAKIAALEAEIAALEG
# T48: 4H_APH
# T48 chain: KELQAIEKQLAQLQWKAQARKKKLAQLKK
# T49: 4H_BCR
# T49 chain: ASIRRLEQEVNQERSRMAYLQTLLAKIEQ
# Legend:
# Experiment in all cases: two-hybrid library CCmax;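 note: natural log of median RNA to DNA barcode read ratio; higher means stronger binding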
# 4H2466-AA = biological target: T1, 4H2466-AA
# 4H249-AA = biological target: T2, 4H249-AA; conditions: mean of both orientations
# 4H2505-AA = biological target: T3, 4H2505-AA; conditions: mean of both orientations
# 4H2575-AA = biological target: T4, 4H2575-AA; conditions: mean of both orientations
# 4H2592-AA = biological target: T5, 4H2592-AA; conditions: mean of both orientations
# 4H2617-AA = biological target: T6, 4H2617-AA; conditions: mean of both orientations
# 4H2642-AA = biological target: T7, 4H2642-AA; conditions: mean of both orientations
# 4H2729-AA = biological target: T8, 4H2729-AA; conditions: mean of both orientations
# 4H2732-AA = biological target: T9, 4H2732-AA; conditions: mean of both orientations
# 4H2754-AA = biological target: T10, 4H2754-AA
# 4H2774-AA = biological target: T11, 4H2774-AA; conditions: mean of both orientations
# 4H2837-AA = biological target: T12, 4H2837-AA; conditions: mean of both orientations
# 4H2883-AA = biological target: T13, 4H2883-AA; conditions: mean of both orientations
# 4H2931-AA = biological target: T14, 4H2931-AA; conditions: mean of both orientations
# 4H2944-AA = biological target: T15, 4H2944-AA; conditions: mean of both orientations
# 4H2949-AA = biological target: T16, 4H2949-AA; conditions: mean of both orientations
# 4H3001-AA = biological target: T17, 4H3001-AA; conditions: mean of both orientations
# 4H3015-AA = biological target: T18, 4H3015-AA; conditions: mean of both orientations
# 4H3073-AA = biological target: T19, 4H3073-AA; conditions: mean of both orientations
# 4H3112-AA = biological target: T20, 4H3112-AA; conditions: mean of both orientations
# 4H317-AA = biological target: T21, 4H317-AA; conditions: mean of both orientations
# 4H3343-AA = biological target: T22, 4H3343-AA; conditions: mean of both orientations
# 4H335-AA = biological target: T23, 4H335-AA; conditions: mean of both orientations
# 4H342-AA = biological target: T24, 4H342-AA; conditions: mean of both orientations
# 4H3427-AA = biological target: T25, 4H3427-AA; conditions: mean of both orientations
# 4H3438-AA = biological target: T26, 4H3438-AA; conditions: mean of both orientations
# 4H347-AA = biological target: T27, 4H347-AA; conditions: mean of both orientations
# 4H3606-AA = biological target: T28, 4H3606-AA; conditions: mean of both orientations
# 4H3627-AA = biological target: T29, 4H3627-AA
# 4H3655-AA = biological target: T30, 4H3655-AA; conditions: mean of both orientations
# 4H3844-AA = biological target: T31, 4H3844-AA; conditions: mean of both orientations
# 4H3921-AA = biological target: T32, 4H3921-AA
# 4H406-AA = biological target: T33, 4H406-AA; conditions: mean of both orientations
# 4H429-AA = biological target: T34, 4H429-AA; conditions: mean of both orientations
# 4H452-AA = biological target: T35, 4H452-AA; conditions: mean of both orientations
# 4H454-AA = biological target: T36, 4H454-AA; conditions: mean of both orientations
# 4H48-AA = biological target: T37, 4H48-AA; conditions: mean of both orientations
# 4H56-AA = biological target: T38, 4H56-AA
# 4H566-AA = biological target: T39, 4H566-AA; conditions: mean of both orientations
# 4H605-AA = biological target: T40, 4H605-AA; conditions: mean of both orientations
# 4H678-AA = biological target: T41, 4H678-AA; conditions: mean of both orientations
# 4H717-AA = biological target: T42, 4H717-AA; conditions: mean of both orientations
# 4H780-AA = biological target: T43, 4H780-AA; conditions: mean of both orientations
# 4H794-AA = biological target: T44, 4H794-AA; conditions: mean of both orientations
# 4H881-AA = biological target: T45, 4H881-AA; conditions: mean of both orientations
# 4H906-AA = biological target: T46, 4H906-AA; conditions: mean of both orientations
# 4H993-AA = biological target: T47, 4H993-AA; conditions: mean of both orientations
# 4H_APH = biological target: T48, 4H_APH
# 4H_BCR = biological target: T49, 4H_BCR; conditions: mean of both orientations
# 4H_GCN4 = biological target: 4H_GCN4
# Chain of 4H_GCN4 (chain, as listed by the source): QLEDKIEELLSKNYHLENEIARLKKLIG
# GCN2_T = conditions: mean of both orientations
binder,measurement,setting,value
DKIAALEAKNAALEAKIAALEAEIAALKG [4H2466-AA],interaction score,4H2466-AA,1.31
same,interaction score,4H249-AA,-1.42
same,interaction score,4H2505-AA,-0.434
same,interaction score,4H2575-AA,-1.2
same,interaction score,4H2592-AA,-1.71
same,interaction score,4H2617-AA,-1.65
same,interaction score,4H2642-AA,-0.362
same,interaction score,4H2729-AA,0.493
same,interaction score,4H2732-AA,-1.42
same,interaction score,4H2754-AA,-0.538
same,interaction score,4H2774-AA,-1.69
same,interaction score,4H2837-AA,-1.28
same,interaction score,4H2883-AA,-1.56
same,interaction score,4H2931-AA,-1.81
same,interaction score,4H2944-AA,-1.57
same,interaction score,4H2949-AA,-0.713
same,interaction score,4H3001-AA,-1.55
same,interaction score,4H3015-AA,-1.65
same,interaction score,4H3073-AA,-1.43
same,interaction score,4H3112-AA,-1.92
same,interaction score,4H317-AA,-1.82
same,interaction score,4H3343-AA,-1.23
same,interaction score,4H335-AA,-1.59
same,interaction score,4H342-AA,-0.478
same,interaction score,4H3427-AA,-1.39
same,interaction score,4H3438-AA,-0.928
same,interaction score,4H347-AA,-2.11
same,interaction score,4H3606-AA,-1.47
same,interaction score,4H3627-AA,-1.86
same,interaction score,4H3655-AA,-1.35
same,interaction score,4H3844-AA,-1.82
same,interaction score,4H3921-AA,-1.23
same,interaction score,4H406-AA,-1.25
same,interaction score,4H429-AA,-0.101
same,interaction score,4H452-AA,-1.37
same,interaction score,4H454-AA,0.993
same,interaction score,4H48-AA,-1.11
same,interaction score,4H56-AA,-2.04
same,interaction score,4H566-AA,-1.51
same,interaction score,4H605-AA,-1.38
same,interaction score,4H678-AA,-0.158
same,interaction score,4H717-AA,-1.06
same,interaction score,4H780-AA,-1.2
same,interaction score,4H794-AA,-1.43
same,interaction score,4H881-AA,-2.04
same,interaction score,4H906-AA,-1.22
same,interaction score,4H993-AA,0.55
same,interaction score,4H_APH,-0.895
same,interaction score,4H_BCR,-2.46
same,interaction score,4H_GCN4,-1.67
same,interaction score,GCN2_T,-1
